From PMC3273627 (Journal of Molecular Biology, 2011)

Target: actin filaments (UniProt P68135 1-377)
Experiment: co-sedimentation

Kd: 3.53 µM
B1: Dys ΔH2-R19 (other)
chain: MLWWEEVEDCYEREDVQKKTFTKWINAQFSKFGKQHIDNLFSDLQDGKRLLDLLEGLTGQKLPKEKGSTRVHALNNVNKALRVLQKNNVDLVNIGSTDIVDGNHKLTLGLIWNIILHWQVKNVMKTIMAGLQQTNSEKILLSWVRQSTRNYPQVNVINFTSSWSDGLALNALIHSHRPDLFDWNSVVSQHSATQRLEHAFNIAKCQLGIEKLLDPEDVATTYPDKKSILMYITSLFQVLPQQVSIEAIQEVEMLPRTSSKVTREEHFQLHHQMHYSQQITVSLAQGYEQTSSSPKPRFKSYAFTQAAYVATSDSTQSPYPSQHLEAPRDKSLDSSLMETEVNLDSYQTALEEVLSWLLSAEDTLRAQGEISNDVEEVKEQFHAHEGFMMDLTSHQGLVGNVLQLGSQLVGKGKLSEDEEAEVQEQMNLLNSRWECLRVASMEKQSKLHKVLMDLQNQKLKELDDWLTKTEERTKKMEEEPFGPDLEDLKCQVQQHKVLQEDLEQEQVRVNSLTHMVVVVDESSGDHATAALEEQLKVLGDRWANICRWTEDRWIVLQDILLKWQHFTEEQCLFSTWLSEKEDAMKNIQTSGFKDQNEMMSSLHKISTLKIDLEKKKPTMEKLSSLNQDLLSALKNKSVTQKMEIWMENFAQRWDNLTQKLEKSSAQISQPDRAPGLSTTGASASQTVTLVTQSVVTKETVISKLEMPSSLLLEVPALADFNRAWTELTDWLSLLDRVIKSQRVMVGDLEDINEMIIKQKATLQDLEQRRPQLEELITAAQNLKNKTSNQEARTIITDRIERIQIQWDEVQEQLQNRRQQLNEMLKDSTQWLEAKEEAEQVIGQVRGKLDSWKEGPHTVDAIQKKITETKQLAKDLRQRQISVDVANDLALKLLRDYSADDTRKVHMITENINTSWGNIHKRVSEQEAALEETHRLLQQFPLDLEKFLSWITEAETTANVLQDASRKEKLLEDSRGVRELMKPWQDLQGEIETHTDIYHNLDENGQKILRSLEGSDEAPLLQRRLDNMNFKWSELQKKSLNIRSHLEASSDQWKRLHLSLQELLVWLQLKDDELSRQAPIGGDFPAVQKQNDIHRAFKRELKTKEPVIMSTLETVRIFLTEQPLEGLEKLYQEPRELPPEERAQNVTRLLRKQAEEVNAEWDKLNLRSADWQRKIDEALERLQELQEAADELDLKLRQAEVIKGSWQPVGDLLIDSLQDHLEKVKALRGEIAPLKENVNRVNDLAHQLTTLGIQLSPYNLSTLEDLNTRWRLLQVAVEDRVRQLHEAHRDFGPASQHFLSTSVQGPWERAISPNKVPYYINHETQTTCWDHPKMTELYQSLADLNNVRFSAYRTAMKLRRLQKALCLDLLSLSAACDALDQHNLKQNDQPMDILQIINCLTTIYDRLEQEHNNLVNVPLCVDMCLNWLLNVYDTGRTGRIRVLSFKTGIISLCKAHLEDKYRYLFKQVASSTGFCDQRRLGLLLHDSIQIPRQLGEVASFGGSNIEPSVRSCFQFANNKPEIEAALFLDWMRLEPQSMVWLPVLHRVAAAETAKHQAKCNICKECPIIGFRYRSLKHFNYDICQSCFFSGRVAKGHKMHYPMVEYCTPTTSGEDVRDFAKVLKNKFRTKRYFAKHPRMGYLPVQTVLEGDNMETPVTLINFWPVDSAPASSPQLSHDDTHSRIEHYASRLAEMENSNGSYLNDSISPNESIDDEHLLIQHYCQSLNQDSPLSQPRSPAQILISLESEERGELERILADLEEENRNLQAEYDRLKQQHEHKGLSPLPSPPEMMPTSPQSPRDAELIAEAKLLRQHKGRLEARMQILEDHNKQLESQLHRLRQLLEQPQAEAKVNGTTVSSPSTSLQRSDSSQPMLLRVVGSQTSESMGEEDLLSPPQDTSTGLEEVMEQLNNSFPSSRGRNAPGKPMREDTM
